B1: PHTF1 (parent)
chain: SRHLNSQVKKTTTRWCHIVRDSDS

Variants of: B1
Test: protein stability index of a GFP-peptide fusion (GPS, HEK-293T) (PSI 1-6); higher = more stable
Settings: c terminus: a fixed tail appended
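Note: lentivirally expressed fusions sorted by FACS into six bins by GFP to DsRed ratio, PSI derived from sequencing read proportions per bin multiplied by bin number.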

| Variant | protein stability index |
| --- | --- |
| ARHLNSQVKKTTTRWCHIVRDSDS [S1A] | 2.52 |
| CRHLNSQVKKTTTRWCHIVRDSDS [S1C] | 2.07 |
| DRHLNSQVKKTTTRWCHIVRDSDS [S1D] | 3.06 |
| ERHLNSQVKKTTTRWCHIVRDSDS [S1E] | 1.8 |
| FRHLNSQVKKTTTRWCHIVRDSDS [S1F] | 1.76 |
| GRHLNSQVKKTTTRWCHIVRDSDS [S1G] | 2.06 |
| HRHLNSQVKKTTTRWCHIVRDSDS [S1H] | 1.46 |
| IRHLNSQVKKTTTRWCHIVRDSDS [S1I] | 1.23 |
| KRHLNSQVKKTTTRWCHIVRDSDS [S1K] | 2.26 |
| LRHLNSQVKKTTTRWCHIVRDSDS [S1L] | 1.51 |
| MRHLNSQVKKTTTRWCHIVRDSDS [S1M] | 2.52 |
| NRHLNSQVKKTTTRWCHIVRDSDS [S1N] | 2.51 |
| PRHLNSQVKKTTTRWCHIVRDSDS [S1P] | 2.47 |
| QRHLNSQVKKTTTRWCHIVRDSDS [S1Q] | 2.38 |
| RRHLNSQVKKTTTRWCHIVRDSDS [S1R] | 2.51 |
| TRHLNSQVKKTTTRWCHIVRDSDS [S1T] | 2.09 |
| VRHLNSQVKKTTTRWCHIVRDSDS [S1V] | 1.84 |
| WRHLNSQVKKTTTRWCHIVRDSDS [S1W] | 2.1 |
| YRHLNSQVKKTTTRWCHIVRDSDS [S1Y] | 2.25 |
| SAHLNSQVKKTTTRWCHIVRDSDS [R2A] | 2.38 |
| SCHLNSQVKKTTTRWCHIVRDSDS [R2C] | 2.12 |
| SDHLNSQVKKTTTRWCHIVRDSDS [R2D] | 2.3 |
| SEHLNSQVKKTTTRWCHIVRDSDS [R2E] | 2.35 |
| SFHLNSQVKKTTTRWCHIVRDSDS [R2F] | 2.56 |

| Variant | protein stability index |
| --- | --- |
| SGHLNSQVKKTTTRWCHIVRDSDS [R2G] | 1.69 |
| SHHLNSQVKKTTTRWCHIVRDSDS [R2H] | 1.96 |
| SIHLNSQVKKTTTRWCHIVRDSDS [R2I] | 2.2 |
| SKHLNSQVKKTTTRWCHIVRDSDS [R2K] | 2.53 |
| SLHLNSQVKKTTTRWCHIVRDSDS [R2L] | 2.17 |
| SMHLNSQVKKTTTRWCHIVRDSDS [R2M] | 2.13 |
| SNHLNSQVKKTTTRWCHIVRDSDS [R2N] | 1.87 |
| SPHLNSQVKKTTTRWCHIVRDSDS [R2P] | 1.89 |
| SQHLNSQVKKTTTRWCHIVRDSDS [R2Q] | 2.4 |
| SSHLNSQVKKTTTRWCHIVRDSDS [R2S] | 2.23 |
| STHLNSQVKKTTTRWCHIVRDSDS [R2T] | 2.15 |
| SVHLNSQVKKTTTRWCHIVRDSDS [R2V] | 1.87 |
| SWHLNSQVKKTTTRWCHIVRDSDS [R2W] | 2.08 |
| SYHLNSQVKKTTTRWCHIVRDSDS [R2Y] | 2 |
| SRALNSQVKKTTTRWCHIVRDSDS [H3A] | 2.23 |
| SRCLNSQVKKTTTRWCHIVRDSDS [H3C] | 1.95 |
| SRDLNSQVKKTTTRWCHIVRDSDS [H3D] | 1.58 |
| SRELNSQVKKTTTRWCHIVRDSDS [H3E] | 2.52 |
| SRFLNSQVKKTTTRWCHIVRDSDS [H3F] | 2.77 |
| SRGLNSQVKKTTTRWCHIVRDSDS [H3G] | 2.21 |
| SRILNSQVKKTTTRWCHIVRDSDS [H3I] | 1.25 |
| SRKLNSQVKKTTTRWCHIVRDSDS [H3K] | 2.02 |
| SRLLNSQVKKTTTRWCHIVRDSDS [H3L] | 2.08 |
| SRMLNSQVKKTTTRWCHIVRDSDS [H3M] | 2.15 |

| Variant | protein stability index |
| --- | --- |
| SRNLNSQVKKTTTRWCHIVRDSDS [H3N] | 1.69 |
| SRPLNSQVKKTTTRWCHIVRDSDS [H3P] | 1.64 |
| SRQLNSQVKKTTTRWCHIVRDSDS [H3Q] | 2.28 |
| SRRLNSQVKKTTTRWCHIVRDSDS [H3R] | 1.79 |
| SRSLNSQVKKTTTRWCHIVRDSDS [H3S] | 1.5 |
| SRTLNSQVKKTTTRWCHIVRDSDS [H3T] | 2.23 |
| SRVLNSQVKKTTTRWCHIVRDSDS [H3V] | 2.36 |
| SRWLNSQVKKTTTRWCHIVRDSDS [H3W] | 1.53 |
| SRHANSQVKKTTTRWCHIVRDSDS [L4A] | 2.58 |
| SRHDNSQVKKTTTRWCHIVRDSDS [L4D] | 1.99 |
| SRHENSQVKKTTTRWCHIVRDSDS [L4E] | 2.56 |
| SRHFNSQVKKTTTRWCHIVRDSDS [L4F] | 3.09 |
| SRHGNSQVKKTTTRWCHIVRDSDS [L4G] | 1.8 |
| SRHHNSQVKKTTTRWCHIVRDSDS [L4H] | 2.15 |
| SRHINSQVKKTTTRWCHIVRDSDS [L4I] | 2.75 |
| SRHKNSQVKKTTTRWCHIVRDSDS [L4K] | 2.56 |
| SRHMNSQVKKTTTRWCHIVRDSDS [L4M] | 1.76 |
| SRHNNSQVKKTTTRWCHIVRDSDS [L4N] | 2.05 |
| SRHPNSQVKKTTTRWCHIVRDSDS [L4P] | 2.44 |
| SRHQNSQVKKTTTRWCHIVRDSDS [L4Q] | 2.12 |
| SRHRNSQVKKTTTRWCHIVRDSDS [L4R] | 1.95 |
| SRHSNSQVKKTTTRWCHIVRDSDS [L4S] | 2.29 |
| SRHTNSQVKKTTTRWCHIVRDSDS [L4T] | 2.06 |
| SRHVNSQVKKTTTRWCHIVRDSDS [L4V] | 2.03 |

| Variant | protein stability index |
| --- | --- |
| SRHWNSQVKKTTTRWCHIVRDSDS [L4W] | 2.25 |
| SRHYNSQVKKTTTRWCHIVRDSDS [L4Y] | 1.76 |
| SRHLASQVKKTTTRWCHIVRDSDS [N5A] | 2.19 |
| SRHLCSQVKKTTTRWCHIVRDSDS [N5C] | 2.33 |
| SRHLDSQVKKTTTRWCHIVRDSDS [N5D] | 2.53 |
| SRHLESQVKKTTTRWCHIVRDSDS [N5E] | 1.59 |
| SRHLFSQVKKTTTRWCHIVRDSDS [N5F] | 2.02 |
| SRHLGSQVKKTTTRWCHIVRDSDS [N5G] | 2.79 |
| SRHLHSQVKKTTTRWCHIVRDSDS [N5H] | 2.56 |
| SRHLISQVKKTTTRWCHIVRDSDS [N5I] | 2.73 |
| SRHLKSQVKKTTTRWCHIVRDSDS [N5K] | 1.8 |
| SRHLLSQVKKTTTRWCHIVRDSDS [N5L] | 1.92 |
| SRHLMSQVKKTTTRWCHIVRDSDS [N5M] | 1.45 |
| SRHLPSQVKKTTTRWCHIVRDSDS [N5P] | 2.22 |
| SRHLQSQVKKTTTRWCHIVRDSDS [N5Q] | 1.92 |
| SRHLRSQVKKTTTRWCHIVRDSDS [N5R] | 3.93 |
| SRHLSSQVKKTTTRWCHIVRDSDS [N5S] | 1.92 |
| SRHLTSQVKKTTTRWCHIVRDSDS [N5T] | 2.38 |
| SRHLVSQVKKTTTRWCHIVRDSDS [N5V] | 1.29 |
| SRHLWSQVKKTTTRWCHIVRDSDS [N5W] | 2.27 |
| SRHLYSQVKKTTTRWCHIVRDSDS [N5Y] | 2.16 |
| SRHLNAQVKKTTTRWCHIVRDSDS [S6A] | 2.29 |
